Results: patent publication US20260209320A1 (ALCHEMAB THERAPEUTICS, published 2026)

T1: Peptide 18 (cyno)
T1 peptide: QQQPPPPPPPPPPPP

T2: Peptide 21 (cyno)
T2 peptide: AQPMLPQPQPPPPPP

T3: Peptide 1 (human, cyno)
T3 peptide: QQQQQQQQPPPPPPP

T4: Epitope 1 (human, cyno)
T4 peptide: QQQQPPPPPPPPPPP

T5: Peptide 4 (human, cyno)
T5 peptide: QQQQQPPPPPPPPPP

T6: Peptide 22 (cyno)
T6 peptide: QPMLPQPQPPPPPPR

T7: Peptide 2 (human, cyno)
T7 peptide: QQQQQQQPPPPPPPP

T8: Peptide 3 (human, cyno)
T8 peptide: QQQQQQPPPPPPPPP

T9: Peptide 17 (human)
T9 peptide: QPPPPPPPPPPGPAV

T10: Peptide 9 (human)
T10 peptide: AQPLLPQPQPPPPPP

T11: Peptide 7 (human)
T11 peptide: PQAQPLLPQPQPPPP

T12: Peptide 16 (human)
T12 peptide: PQPPPPPPPPPPGPA

T13: Peptide 13 (human)
T13 peptide: LPQPQPPPPPPPPPP

T14: Peptide 12 (human)
T14 peptide: LLPQPQPPPPPPPPP

T15: Peptide 11 (human)
T15 peptide: PLLPQPQPPPPPPPP

T16: Peptide 10 (human)
T16 peptide: QPLLPQPQPPPPPPP

T17: Peptide 8 (human)
T17 peptide: QAQPLLPQPQPPPPP

T18: Peptide 43 (mouse)
T18 peptide: QPPPQGQPPPPPPPL

T19: Peptide 34 (mouse)
T19 peptide: QQQPPPQAPPPPPPP

T20: Peptide 39 (mouse)
T20 peptide: PQAPPPPPPPPPPQP

T21: Peptide 40 (mouse)
T21 peptide: QAPPPPPPPPPPQPP

T22: Peptide 44 (mouse)
T22 peptide: PPPQGQPPPPPPPLP

T23: Peptide 35 (mouse)
T23 peptide: QQPPPQAPPPPPPPP

T24: Peptide 42 (mouse)
T24 peptide: PQPPPQGQPPPPPPP

T25: Peptide 38 (mouse)
T25 peptide: PPQAPPPPPPPPPPQ

T26: Peptide 33 (mouse)
T26 peptide: QQQQPPPQAPPPPPP

B1: ATL_0005335 (antibody, V domains shown)
VH: EVQLVESGGGLVKPGGSLRLSCAASGFTFNKAWMNWVRQAPGKGLEWVGRIKSGIDGGTTDYAAPVQGRFTISRDDSKNTVYLQMNSLNTEDTAVYYCIPPPYYYYYGLDVWGQGTTVTVSS
VL: QSALTQPASVSGSPGQSITISCTGTSSDIGSYNLVSWYQQHPGNAPKPLIYEGSKRPSGVSARFSGSKSGNTASLTISGLQPEDEADYYCSSYAGFNTLVFGGGTKVTVL
notes: human IgG1; also called ATL_5335
B2: ATL_0005331 (antibody, V domains shown)
VH: B1 VH
VL: QSALTQPRSVSGSPGQSITISCTGTSSDVGSYNLVSWFQQHPGKAPKLIIYEVNKRPSGVPDRFSGSKSGNTASLTVSGLQAEDEADYYCGSYAGTNNVFGTGTKLTVL
notes: human IgG1; also called ATL_5331; Human IgG1 ATL_0005331

Experiments:
Peptide 18 [1] = biological target: T1, Peptide 18; experiment: peptide microarray; Sp C1; IgG 1 µg/ml
Peptide 21 [2] = biological target: T2, Peptide 21; experiment: peptide microarray; Sp C1; IgG 1 µg/ml
Peptide 1 [3] = biological target: T3, Peptide 1; experiment: peptide microarray; Sp C1; IgG 1 µg/ml
Epitope 1 [4] = biological target: T4, Epitope 1; experiment: peptide microarray; Sp C1; IgG 1 µg/ml
Peptide 4 [5] = biological target: T5, Peptide 4; experiment: peptide microarray; Sp C1; IgG 1 µg/ml
Peptide 22 [6] = biological target: T6, Peptide 22; experiment: peptide microarray; Sp C1; IgG 1 µg/ml
Peptide 2 [7] = biological target: T7, Peptide 2; experiment: peptide microarray; Sp C1; IgG 1 µg/ml
Peptide 3 [8] = biological target: T8, Peptide 3; experiment: peptide microarray; Sp C1; IgG 1 µg/ml
Peptide 17 = biological target: T9, Peptide 17; experiment: peptide microarray; Sp H; IgG 10 µg/ml
Peptide 9 = biological target: T10, Peptide 9; experiment: peptide microarray; Sp H; IgG 10 µg/ml
Peptide 7 = biological target: T11, Peptide 7; experiment: peptide microarray; Sp H; IgG 10 µg/ml
Peptide 1 [9] = biological target: T3, Peptide 1; experiment: peptide microarray; Sp H; IgG 10 µg/ml
Peptide 16 = biological target: T12, Peptide 16; experiment: peptide microarray; Sp H; IgG 10 µg/ml
Peptide 13 = biological target: T13, Peptide 13; experiment: peptide microarray; Sp H; IgG 10 µg/ml
Epitope 1 [10] = biological target: T4, Epitope 1; experiment: peptide microarray; Sp H; IgG 10 µg/ml
Peptide 4 [11] = biological target: T5, Peptide 4; experiment: peptide microarray; Sp H; IgG 10 µg/ml
Peptide 12 = biological target: T14, Peptide 12; experiment: peptide microarray; Sp H; IgG 10 µg/ml
Peptide 11 = biological target: T15, Peptide 11; experiment: peptide microarray; Sp H; IgG 10 µg/ml
Peptide 10 = biological target: T16, Peptide 10; experiment: peptide microarray; Sp H; IgG 10 µg/ml
Peptide 8 = biological target: T17, Peptide 8; experiment: peptide microarray; Sp H; IgG 10 µg/ml
Peptide 2 [12] = biological target: T7, Peptide 2; experiment: peptide microarray; Sp H; IgG 10 µg/ml
Peptide 3 [13] = biological target: T8, Peptide 3; experiment: peptide microarray; Sp H; IgG 10 µg/ml
Peptide 18 [14] = biological target: T1, Peptide 18; experiment: peptide microarray; Sp C1; IgG 10 µg/ml
Peptide 21 [15] = biological target: T2, Peptide 21; experiment: peptide microarray; Sp C1; IgG 10 µg/ml
Peptide 1 [16] = biological target: T3, Peptide 1; experiment: peptide microarray; Sp C1; IgG 10 µg/ml
Epitope 1 [17] = biological target: T4, Epitope 1; experiment: peptide microarray; Sp C1; IgG 10 µg/ml
Peptide 4 [18] = biological target: T5, Peptide 4; experiment: peptide microarray; Sp C1; IgG 10 µg/ml
Peptide 22 [19] = biological target: T6, Peptide 22; experiment: peptide microarray; Sp C1; IgG 10 µg/ml
Peptide 2 [20] = biological target: T7, Peptide 2; experiment: peptide microarray; Sp C1; IgG 10 µg/ml
Peptide 3 [21] = biological target: T8, Peptide 3; experiment: peptide microarray; Sp C1; IgG 10 µg/ml
Peptide 43 = biological target: T18, Peptide 43; experiment: peptide microarray; Sp M; IgG 10 µg/ml
Peptide 34 = biological target: T19, Peptide 34; experiment: peptide microarray; Sp M; IgG 10 µg/ml
Peptide 39 = biological target: T20, Peptide 39; experiment: peptide microarray; Sp M; IgG 10 µg/ml
Peptide 40 = biological target: T21, Peptide 40; experiment: peptide microarray; Sp M; IgG 10 µg/ml
Peptide 44 = biological target: T22, Peptide 44; experiment: peptide microarray; Sp M; IgG 10 µg/ml
Peptide 35 = biological target: T23, Peptide 35; experiment: peptide microarray; Sp M; IgG 10 µg/ml
Peptide 42 = biological target: T24, Peptide 42; experiment: peptide microarray; Sp M; IgG 10 µg/ml
Peptide 38 = biological target: T25, Peptide 38; experiment: peptide microarray; Sp M; IgG 10 µg/ml
Peptide 33 = biological target: T26, Peptide 33; experiment: peptide microarray; Sp M; IgG 10 µg/ml
[22] = biological target: T27, Mutant Human HTT Exon 1 48Q (GST) (human); experiment: ELISA
T27 construct: recombinant His- and GST-tagged fusion; also called HTT Exon 1 Q48; 48Q HTT Exon-1
T27 sequence (chain, as listed by the source mutant limits assumed): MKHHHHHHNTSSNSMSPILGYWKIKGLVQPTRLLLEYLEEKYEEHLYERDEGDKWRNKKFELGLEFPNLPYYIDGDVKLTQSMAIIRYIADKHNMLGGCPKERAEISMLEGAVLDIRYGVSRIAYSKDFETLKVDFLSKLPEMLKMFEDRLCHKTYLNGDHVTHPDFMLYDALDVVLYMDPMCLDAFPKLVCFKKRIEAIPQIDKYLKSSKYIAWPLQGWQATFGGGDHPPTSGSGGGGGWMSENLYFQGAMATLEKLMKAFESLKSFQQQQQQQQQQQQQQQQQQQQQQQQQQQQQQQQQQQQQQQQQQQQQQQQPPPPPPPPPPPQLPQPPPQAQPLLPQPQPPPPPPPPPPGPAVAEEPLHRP

Row | Binder | corrected fluorescence intensity (Peptide 18 [1]) | corrected fluorescence intensity (Peptide 21 [2]) | corrected fluorescence intensity (Peptide 1 [3]) | corrected fluorescence intensity (Epitope 1 [4]) | corrected fluorescence intensity (Peptide 4 [5]) | corrected fluorescence intensity (Peptide 22 [6]) | corrected fluorescence intensity (Peptide 2 [7]) | corrected fluorescence intensity (Peptide 3 [8]) | corrected fluorescence intensity (Peptide 17) | corrected fluorescence intensity (Peptide 9) | corrected fluorescence intensity (Peptide 7) | corrected fluorescence intensity (Peptide 1 [9]) | corrected fluorescence intensity (Peptide 16) | corrected fluorescence intensity (Peptide 13) | corrected fluorescence intensity (Epitope 1 [10]) | corrected fluorescence intensity (Peptide 4 [11]) | corrected fluorescence intensity (Peptide 12) | corrected fluorescence intensity (Peptide 11) | corrected fluorescence intensity (Peptide 10) | corrected fluorescence intensity (Peptide 8) | also measured
1 | B1 | 474 | 443 | 381 | 391 | 536 | 82 | 667 | 520 | 166 | 3470 | 326 | 729 | 415 | 9010 | 3840 | 3680 | 8520 | 6680 | 5410 | 1510 | corrected fluorescence intensity (Peptide 2 [12]): 2100; corrected fluorescence intensity (Peptide 3 [13]): 3190; corrected fluorescence intensity (Peptide 18 [14]): 4510; corrected fluorescence intensity (Peptide 21 [15]): 2740; corrected fluorescence intensity (Peptide 1 [16]): 0; corrected fluorescence intensity (Epitope 1 [17]): 3340; corrected fluorescence intensity (Peptide 4 [18]): 4320; corrected fluorescence intensity (Peptide 22 [19]): 374; corrected fluorescence intensity (Peptide 2 [20]): 2230; corrected fluorescence intensity (Peptide 3 [21]): 3540; corrected fluorescence intensity (Peptide 43): 899; corrected fluorescence intensity (Peptide 34): 5800; corrected fluorescence intensity (Peptide 39): 1880; corrected fluorescence intensity (Peptide 40): 0; corrected fluorescence intensity (Peptide 44): 1250; corrected fluorescence intensity (Peptide 35): 7820; corrected fluorescence intensity (Peptide 42): 2280; corrected fluorescence intensity (Peptide 38): 3520; corrected fluorescence intensity (Peptide 33): 3090; binding result [22]: binds
2 | B2 | 137 | 182 | 0 | 195 | 136 | 91 | 118 | 206 | 16.2 | 1260 | 119 | 0 | 145 | 3960 | 2950 | 2620 | 3490 | 2950 | 2250 | 1140 | corrected fluorescence intensity (Peptide 2 [12]): 1340; corrected fluorescence intensity (Peptide 3 [13]): 1670; corrected fluorescence intensity (Peptide 18 [14]): 3100; corrected fluorescence intensity (Peptide 21 [15]): 1030; corrected fluorescence intensity (Peptide 1 [16]): 378; corrected fluorescence intensity (Epitope 1 [17]): 4160; corrected fluorescence intensity (Peptide 4 [18]): 3150; corrected fluorescence intensity (Peptide 22 [19]): 112; corrected fluorescence intensity (Peptide 2 [20]): 1760; corrected fluorescence intensity (Peptide 3 [21]): 2290; corrected fluorescence intensity (Peptide 43): 997; corrected fluorescence intensity (Peptide 34): 1540; corrected fluorescence intensity (Peptide 39): 842; corrected fluorescence intensity (Peptide 40): 234; corrected fluorescence intensity (Peptide 44): 1740; corrected fluorescence intensity (Peptide 35): 2410; corrected fluorescence intensity (Peptide 42): 884; corrected fluorescence intensity (Peptide 38): 825; corrected fluorescence intensity (Peptide 33): 633; binding result [22]: binds
